Patent US20180312557A1, “Leg1 Protein, Leg1 Gene, and Uses and Drugs thereof” (ZHEJIANG UNIVERSITY, priority 2016, published 2018)

Tests used:
[1] = tested on: intracellular tyrosine phosphorylation in HepG2 cells; test: Total intracellular tyrosine phosphorylation in HepG2 cells (antibody 4G10); format: cell-based, human; conditions: HepG2, partially purified mLeg1 vs no addition
Experimental: 18.1 Partially purified mLeg1 was added to the HepG2 cell medium to culture the HepG2 cells, and then total protein was extracted.
18.2 The phosphorylation level of the total intracellular tyrosine was detected through the tyrosine phosphorylation antibody 4G10 (Millipore, 05-321).

[2] = tested on: Akt phosphorylation in the liver; test: Liver Akt phosphorylation after intragastric administration of mLeg1; format: in vivo, mouse
Experimental: (§1) 22.1 The column chromatography partially purified mLeg1 protein was intragastrically administered to the mLeg1^Δ/Δ mice at 50 ng of mLeg1 per gram of body weight of the mice.
(§2) 22.2 The mice were sacrificed at different time points (0, 10, 20, 40, 60 min) after intragastric administration and liver samples were collected, an immunoprecipitation experiment was conducted to pull down mLeg1 protein (if there is any) and its interacting protein in the liver by using mLeg1 antibodies Reference may be made to steps 21.2-21.5.
This may result from the fact that mLeg1 binds with EGFR rapidly, and transmitted downstream signals rapidly, as in in vitro experiments, mLeg1 can activate EGFR within 1 minute and the phosphorylation level of EGFR began to decrease within 3 minutes. Further, the inventors of the present disclosure also detected the activation of such intragastrically administered mLeg1 protein on downstream Akt. […] According to the above results, mLeg1 secreted from the salivary glands can be transferred into the liver and activates EGFR in the liver, thereby activating Akt to finally regulate the physiological functions of the liver cells.

[3] = target: T1, EGFR (Mus musculus, UniProt Q01279); test: EGFR interacting with mLeg1 in liver after intragastric administration (co-immunoprecipitation); format: in vivo
T1 construct: from tissue; host or cells: liver of mLeg1^Δ/Δ mice
Experimental: as §1, §2

[4] = target: T2, EGFR (Homo sapiens, UniProt P00533); test: Effect of EGFR inhibitor on mLeg1-induced Akt and EGFR phosphorylation in HepG2 cells; format: cell-based; conditions: HepG2, 15 minutes
T2 construct: endogenous in cells; host or cells: HepG2
Source text: 20.1 Culture of the HepG2 cell: reference may be made to step 18.1 for details.

[5] = target: T1, EGFR; test: Co-immunoprecipitation of mLeg1 and EGFR in cells isolated from liver homogenate; format: binding; conditions: liver cells incubated at 4° C. with crosslinking agent DSP
Experimental: Since the reaction of mLeg1 activating EGFR is very short and the EGFR will be degraded soon after being activated, the inventors of the present disclosure used mLeg1 to incubate the liver cells at 4° C., and simultaneously added a crosslinking agent DSP thereto to stabilize the interaction between mLeg1 and its potential interacting protein, and then washed mLeg1 and lysed the liver cells using NP40 lysate for co-immunoprecipitation. The experimental method was as follows.
21.1 Antibody crosslinking: 30 μl of proteinA/G (beyotime Cat. No. P2012) was centrifuged at a low speed (500-1000 g) to remove the supernatant, and then washed twice using 4° C. pre-chilled PBS, then added with mLeg1 antibody (20 μg of antibody were dissolved in 1×100 μl PBS) for incubation at room temperature for 30 minutes, and then centrifuged to remove the supernatant. The beads were washed three times with 300 μl of PBS, then incubated with 50 μl of DSS solution (5 μl 10×PBS, 36 μl H2O, 9 μl 2.5 mM DSS (Thermo, Cat. NO. 21655)) for 50 minutes at room temperature. After centrifugation to remove supernatant, the beads were washed three times with 50 μl of 100 mM pH 2.2 glycine, washed twice with 300 μl of PBS containing 1% NP40, and finally washed once with 300 μl of PBS. […]
21.5 The protein pulled down by the mLeg1 antibody was detected by Western blot.

[6] = tested on: RTKs; test: Phospho-RTK array, HepG2 cells: other RTKs; format: cell-based, human; conditions: HepG2, Phospho-RTK array (49 RTKs)
Experimental: 19.1 The screening of receptor tyrosine kinase was performed by a RTK assay kit (Proteome Profiler Human Phospho-RTK Array Kit, R&D Cat. no. ARY001B) according to the manufacturer's instruction. The kit can detect 49 of 58 RTKs in total. The operation steps are summarized as follows: mLeg1 and a control were used to treat the cells (cells were grown in a 10 cm petri dish) separately, and then 500 μl of lysis buffer17 was used to lyse the cells; the RTK screening membrane was blocked for 1 hour using Assay buffer1 and then coated with a cell lysate for binding overnight, the resultant product was washed three times with 1× Wash Buffer, 10 minutes each time, then added with Anti-Phospho-Tyrosine-HRP Detection Antibody diluted with 1× Array Buffer2 at the ratio of 1:5000 for incubation at room temperature for 2 hours; followed by washing 3 times with 1× Wash Buffer, 10 minutes each time, then applied with Chemi Reagent Mix and developed, and finally imaged in a fluorescent chemiluminescent imager (Clinx Science Instruments Cat. No. 3400) with the signals recorded.

B1: mLeg1 protein: mouse secretory protein (SEQ ID NO: 2) encoded by mLeg1 gene, partially purified from salivary glands by column chromatography (protein, listed as Mus musculus)
chain: MAVLASWVWVLAGCFCAAVAEVSDSSDPYPPLWEDSPEQLSDYMMEDGNYIINPWVYTDRMGMYRILLEETAMYFAKYGPENEQNLLWGLPLQFGWQYQSGRLADPTGMTDCGNELNESLCVSVDSWWADINYYLSVIPFLAAVDSGITGISPNQITILPPPKDQMRFCYNVSDCQSAVPGTMNRWRDFFQYMQLNSSDFDGLLNYLWEAHASSLDYPTSAFGDRYNFYSEKEANFEENWAIAVNYLAAARLPTTQNRTYSFQRGLPPRVLVDTDIAPFIPDFTPLQNEVLVSLKLLGDTDRNSGSLSLTLWENLMSTKLARTLFLKAFEEFLATSS
modifications: partially purified
[1]
  phosphorylation level of the intracellular tyrosine: far higher than that of the control group
[2]; 10 minutes after intragastric administration
  Akt phosphorylation in the liver: increased
[2]; 40 minutes to 60 minutes after intragastric administration
  Akt phosphorylation in the liver: more significant
[3]
  time at which the amount of EGFR that interacts with mLeg1 reached the maximum: 10 min
[4]; mLeg1 treatment
  EGFR phosphorylation: induced EGFR phosphorylation
[4]; partially purified mLeg1 vs BSA control
  Akt phosphorylation: could be induced
[5]
  interaction with EGFR (pull-down by mLeg1 antibody): EGFR could be co-precipitated
[6]
  activity of most of the RTKs: not influenced
